In patent US20070185028A1, “Compositions and methods for treatment of protein misfolding and protein aggregation diseases” (priority 2004, published 2007):

Target: T1, Aβ1-42 (Homo sapiens, UniProt P05067)
T1 construct: Aβ1-42 (American Peptide); purchased American Peptide
Experiment: Aβ1-42 fibril formation ThT fluorescence assay
Type: biochemical
Conditions: for decrease in ThT fluorescence of Aβ1-42: 30 μM Aβ1-42, 48 hrs
Description: The effect of five synthesized αB crystallin peptides STSLSPFYLRPPSFLRAP (ST), DRFSVNLDVKHFS (DR), HGKHEERQDE (HG), LTITSSLSSDGV (LT), and ERTIPITRE (ER) on Aβ1-42 fibrillation was measured using the ThT fluorescence assay (FIG. 1). The formation and inhibition of Aβ1-42 fibrils was qualitatively verified by fluorescence and bright-field microscopy. The concentration and stoichometry of the peptides was varied relative to Aβ1-42 to establish a concentration curve. In addition, the effect of two known inhibitors of Aβ1-42 fibrillation (APS and NAP) and a control neuropeptide (AT1) with no fibril inhibition activity was measured and compared to the effect of the αB crystallin peptides on Aβ1-42 fibrillation. The ThT fluorescence of 30 μM Aβ1-42 alone incubated at 37° C. for 48 hrs increased from ˜350,000 to ˜450,000 RFU. […] In contrast, 6 μM DR, LT, and […] had no effect on Aβ1-42 fibril formation. […] Increasing the concentration of the DR peptide to 30 μM decreased the ThT fluorescence by approximately 50%. […] However, when the concentrations of the LT and ER peptides were increased to 150 μM, a 60-100% decrease in ThT fluorescence was measured. […] The negative control peptide AT1 had no effect on Aβ1-42 fibril formation even at a concentration as high as 300 μM.
The Thioflavin T (ThT) fluorescence of Aβ1-42 in the presence of varying concentrations of αB crystallin peptides and controls was measured. […] Addition of 6 μM DR, LT, and ER had no effect on the ThT fluorescence of Aβ1-42. When the concentration of the peptides was increased to 30 μM (1:1::peptide:Aβ1-42), the αB crystallin peptides ST, DR, HG decreased the ThT fluorescence by 50-100%. At the same concentrations, APS and NAP decreased the ThT fluorescence by 30-100%. When the concentration of the peptides was increased further to 150 μM ([…]), four of the five αB crystallin peptides DR, HG, LT, and ER decreased the ThT fluorescence by 58-100%. At the same concentrations, APS and NAP decreased the fluorescence by 28-100%. […] The formation and inhibition of Aβ fibrils was verified microscopically.
Thioflavin T (ThT) Assays. The effect of the five αB crystallin peptides (ST, DR, HG, LT, and ER) on Aβ1-42 fibril formation was measured using the ThT fluorescence assay (44-47) and compared with two known inhibitors of Aβ1-42 fibril formation (Tramiprosate and NAP)(34, 36) and a negative control neuropeptide Angiotensin 1 (AT1). Thioflavin T is a fluorescent dye that has a high affinity for amyloid fibrils and becomes fluorescent (excitation λ=450 nm, emission λ=486 nm) when bound to fibrils. For the Aβ1-42 assays, peptides and APS were dissolved to 2 mM in 0.25% DMSO and diluted accordingly, while Aβ1-42 was dissolved in 20 mM Tris-Cl, pH 7.40, and 100 mM NaCl. For the 5:1::inhibitor:Aβ1-42 assay, 10 μL of 450 μM peptide or APS was mixed with 10 μL of 90 μM Aβ1-42), 7 μL 20 mM Tris-Cl, 100 mM NaCl, pH 7.4 and 3 μL of 1 mM ThT. For the 1:1::inhibitor:Aβ1-42 assay, 10 μL of 90 μM peptide or APS was mixed with 10 μL of 90 μM Aβ(1-42), 7 μL 20 mM Tris-Cl, 100 mM NaCl, pH 7.4 and 3 μL of 1 mM ThT. For the 1:5::inhibitor:Aβ1-42 assay, 10 μL of 18 μM peptide or APS was mixed with 10 μL of 90 μM Aβ(1-42), 7 μL 20 mM Tris-Cl, 100 mM NaCl, pH 7.4 and 3 μL of 1 mM ThT. ThT fluorescence in relative fluorescence units (RFU) was measured using a Perkin Elmer Victor^3 V plate reader. Assays were performed in 384-well fluorescence plates in duplicates or triplicates. Samples were incubated at 37° C. for a total of 48 hours. ThT fluorescence was measured at 0, 24, and 48 hours. The effect of the peptides and APS was calculated as percentage fibril formation relative to Aβ1-42 alone (100%) at the end of 48 hours.

DRFSVNLDVKHFS
decrease in ThT fluorescence of Aβ1-42 (6 μM inhibitor, 37° C.): no effect

ERTIPITRE
decrease in ThT fluorescence of Aβ1-42 (6 μM inhibitor, 37° C.): no effect | decrease in ThT fluorescence of Aβ1-42 (30 μM inhibitor (1:1)): no effect

HGKHEERQDE
effect on Aβ1-42 fibril formation, over all concentrations (any concentration): most effective inhibitor

LTITSSLSSDGV
decrease in ThT fluorescence of Aβ1-42 (6 μM inhibitor, 37° C.): no effect | decrease in ThT fluorescence of Aβ1-42 (30 μM inhibitor (1:1)): no effect

STSLSPFYLRPPSFLRAP
inhibition of Aβ fibrillation (peptide to substrate concentration of 1:5): 100%
